Values quoted from earlier work in article PMC4310935.

Molecular target: GLP-1 receptor (Mus musculus) (UniProt O35659)
Chain of UniProt O35659 (O35659 22-463): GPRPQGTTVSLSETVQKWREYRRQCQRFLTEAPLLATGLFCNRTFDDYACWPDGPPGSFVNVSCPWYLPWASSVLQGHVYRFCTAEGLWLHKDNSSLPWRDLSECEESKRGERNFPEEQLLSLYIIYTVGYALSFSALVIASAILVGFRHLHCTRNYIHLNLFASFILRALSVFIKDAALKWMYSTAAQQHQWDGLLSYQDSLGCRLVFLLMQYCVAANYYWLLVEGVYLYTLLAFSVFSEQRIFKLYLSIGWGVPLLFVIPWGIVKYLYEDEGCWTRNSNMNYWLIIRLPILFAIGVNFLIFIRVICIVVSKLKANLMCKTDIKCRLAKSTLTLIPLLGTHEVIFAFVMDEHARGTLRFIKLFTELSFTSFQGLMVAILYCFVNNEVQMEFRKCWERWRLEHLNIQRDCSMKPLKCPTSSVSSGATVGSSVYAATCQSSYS

Chain of GLP-1 (P55095 98-127): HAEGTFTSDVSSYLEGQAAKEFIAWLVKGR

- Kd: 0.5 nM
Substance: GLP-1 (from UniProt P55095)
